The record followed here is publication PMC10148881 (2023).

The chains are these.
B1: Ala6/C-degron peptide (sequence: YKTSAAAAAA) / Pirh2 NTD + RING (residues 1–189) [human] (parent complex)
chain 1: YKTSAAAAAA
chain 2: MAATAREDGASGQERGQRGCEHYDRGCLLKAPCCDKLYTCRLCHDNNEDHQLDRFKVKEVQCINCEKIQHAQQTCEECSTLFGEYYCDICHLFDKDKKQYHCENCGICRIGPKEDFFHCLKCNLCLAMNLQGRHKCIENVSRQNCPICLEDIHTSRVVAHVLPCGHLLHRTCYEEMLKEGYRCPLCMHS
B2: YKTSAAAA peptide / Pirh2 NTD + RING (residues 1–189) [human] (parent complex)
chain 1: YKTSAAAA
chain 2: B1 chain 2

Variants of B1 are the subject of the first test. The experiment in a line: ITC. A general note: Isothermal titration calorimetry measures the heat released or taken up as one component is titrated into another.
Broadly, the Kd is the concentration at which binding is half-saturated. Consider chain 1 A8T, for which the Kd came to 0.7 µM.

In a further test the parent is B2. Briefly: ITC.
Consider chain 1 A6V, for which the Kd was found to be 1.9 µM.
On the same count and under the same terms, the figure for chain 1 A6S is 3 µM; for chain 1 A6I it is 2.7 µM.
The same measure, in the same setting: in the case of chain 1 A6L it was 2.8 µM; in that of chain 1 A6G, 2.3 µM.

The variants in a further test derive from B2. Briefly: ITC. This is another data set of the same source.
As for chain 1 A7G, the Kd worked out at 22 µM.
Same read-out and setting: the figure for chain 1 A7V is 13 µM; for chain 1 A7S it is 20 µM; for chain 1 A7P it is 26 µM.
On the same count and under the same terms, the figure for chain 1 A7I is 13 µM.

The variants in another test derive from B2. Briefly: ITC. This is another data set of the same source.
For the variant chain 1 A5S, the equilibrium dissociation constant (Kd) was 4.5 µM.
Same read-out and setting: in the case of chain 1 A5P it was 57 µM.
Still for that read-out and setting: in the case of chain 1 A5G it was 55 µM.

The next test covers variants of B2. Briefly: ITC. The source holds these as a separate data set.
On to chain 1 A8G, for which the Kd was found to be 23 µM.
